Assay results: patent publication US20030113828A1, “Compositions and methods for modulating Syk function” (priority 2001, published 2003)

T1: integrin β3 cytoplasmic tail (Homo sapiens, UniProt P05106)
T1 construct: made in house
T1 sequence (P05106 742-788 limits assumed): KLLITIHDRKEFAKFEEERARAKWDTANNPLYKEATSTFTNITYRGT


Biological target: T1, integrin β3 cytoplasmic tail
Assay: Affinity chromatography/direct binding of kinase fragments to integrin tail
Conditions: recombinant fragments, direct binding assay
Method: Following incubation, beads were washed and bound protein was analyzed by immunoblotting.
For direct binding assays, model peptides (1 mg) were dissolved in 1 ml buffer containing 20 mM Tris (pH 7.9), 500 mM NaCl, and 6 M urea. To this, 50 ul packed His-Bind® Resin (Novagen, Madison, Wis.) was added and the mixture was rotated for 1 hour at room temperature. Immobilized peptides were washed 5× in above buffer without urea, and resuspended in 500 μl buffer containing 20 mM PIPES pH 6.8, 50 mM NaCl, 3 mM MgCl2, 150 mM sucrose, 50 mM NaF, 40 mM Na4P2O7*10H2O (buffer A) supplemented with 0.1% TritonX-100 and 3 mM MgCl2. Purified GST-fusion proteins were added to 0.5 ml buffer A supplemented with 0.1% TritonX-100 and 3 mM MgCl2. Five μl of total packed resin loaded with various integrin cytoplasmic domain model proteins was added to the GST-fusion protein. The mixture was incubated for 40 minutes at room temperature with continuous rotation. The beads were then washed five times in buffer A with 0.1% TritonX-100 and 3 mM MgCl2. Bound proteins were eluted by boiling in reducing sample buffer, fractionated by SDS PAGE, and immuno-blotted.

binding to the β3 tail	Molecule
bound	Zap-70(1-337): Zap-70 fragment containing both SH2 and interdomains A and B (protein, left off: a dimerising Fc or GST, Zap-70 fragment containing both SH2 and interdomains A and B) MPDPAAHLPFFYGSISRAEAEEHLKLAGMADGLFLLRQCLRSLGGYVLSLVHDVRFHHFPIERQLNGTYAIAGGKAHCGPAELCEFYSRDPDGLPCNLRKPCNRPSGLEPQPGVFDCLRDAMVRDYVRQTWKLEGEALEQAIISQAPQVEKLIATTAHERMPWYHSSLTREEAERKLYSGAQTDGKFLLRPRKEQGTYALSLIYGKTVYHYLISQDKAGKYCIPEGTKFDTLWQLVEYLKLKADGLIYCLKEACPNSSASNASGAAAPTLPAHPSTLTHPQRRIDTLNSDGYTPEPARITSPDKPRPMPMDTSVYESPYSDPEELKDKKLFLKRDNL
decrease in binding	Zap-70(1-132): Zap-70 truncation lacking the C-terminal half of interdomain A (protein) MPDPAAHLPFFYGSISRAEAEEHLKLAGMADGLFLLRQCLRSLGGYVLSLVHDVRFHHFPIERQLNGTYAIAGGKAHCGPAELCEFYSRDPDGLPCNLRKPCNRPSGLEPQPGVFDCLRDAMVRDYVRQTWK
